For 132 substances, amyloid nucleation score results are on record in the supplement of paper PMC12042874.

± gives the uncertainty stated by the source.

This series can be described thus: amyloid nucleation score (Sup35N fusion, yeast selection) (log enrichment); library NNK3; higher = more nucleation; inactive = no reads after selection. A digest of the protocol:
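Output and input plasmid inserts were sequenced by Illumina after psi-negative yeast carrying Sup35N fused to peptides of 20 random codons had been induced 24 hours with 100 μM copper sulfate and grown 7 days at 30°C on medium lacking adenine and uracil. The nucleation score is the DiMSum log enrichment of output over input reads, centred on the mode score of non-aggregating sequences. Sequences with under 100 input reads were excluded.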
Take KWSLFLYRHGWCRLAGTLLV: the amyloid nucleation score was -0.443 ± 1. Take KWVCYHSWDYTCYHGEWYPS: the amyloid nucleation score result was “inactive”. As to KYCGQLQFRCIELEGGIKRE, the amyloid nucleation score result was “inactive”. Take KYCYIEWN: the amyloid nucleation score result is “inactive”. With KYDCRGEMLFQ, the amyloid nucleation score entry is “inactive”.

KYDSY: the amyloid nucleation score entry was “inactive”. As for KYFIINYSVSSNGRKAHYCQ, the figure is 2.28 ± 0.065; as for KYHLGECVLSPLAPKIHWEI, “inactive”; as for KYIIWLLDDSDLI, “inactive”. For KYKAWMVCHTHWSTVKVKRL, the amyloid nucleation score entry is “inactive”. With KYNFNYPEITLAPTYYMSIT, the amyloid nucleation score result was “inactive”. In the case of KYTNTACLSRASIGNMIGQF, the amyloid nucleation score result was “inactive”. Turning to KYYYVLGMQMYRHLYWTACV, the amyloid nucleation score entry was “inactive”. As for LAALLKASWVSHVVSWNKRT, the amyloid nucleation score result was “inactive”. Regarding LAAMWPFV, the amyloid nucleation score entry is “inactive”. LAASLSGIYCPSLAWRGLKE: the amyloid nucleation score entry is “inactive”. With LACSMLCVDPIADGHNFSYS, the amyloid nucleation score entry is “inactive”. As for LACSSSCILSPVVGIGFSWN, the figure is 1.89 ± 0.055; as for LADNIRFISN, “inactive”; as for LAIILLFAVRLCRDANGDAM, “inactive”.

On to LAITNIEWSLFIQWTLI, for which the amyloid nucleation score entry was “inactive”. In turn, LAMPTLLQASVTNLVGDSIV yielded an amyloid nucleation score of -0.265 ± 0.39.

As to LARHSCSSNVYGNLQRTFFG, the amyloid nucleation score entry is “inactive”. As for LASGRHQASVHCRVNSMMYS, the entry is “inactive”; as for LASSQLIYRTSRTCPTLLPL, 1.3 ± 0.1. As for LAYWPSNGCVP, the entry is “inactive”. Take LCCTRTSHIMSRVARMAFRV: the amyloid nucleation score entry is “inactive”. LCDGCKNMFLLPLY: the amyloid nucleation score result is “inactive”. Regarding LCFAVSDCFNYKVLPILMGA, the amyloid nucleation score entry was “inactive”. In turn, LCFMRHSLRGWG returned an amyloid nucleation score of -0.415 ± 0.96.

As for LCFRLDVSRMCTVSGNIGYC, the amyloid nucleation score worked out at 1.57 ± 0.079. As for LCGCS, the entry is “inactive”. In the case of LCHSSRGDIH, the amyloid nucleation score entry is “inactive”. For LCKQTSTTNLSGV, the amyloid nucleation score entry is “inactive”. LCPIAMCCSG: the amyloid nucleation score result was “inactive”. Take LCPVMLDRRSARSKGPALIL: the amyloid nucleation score entry is “inactive”.

On to LCRFNLYYWLVFELACSRWN, for which the amyloid nucleation score result is “inactive”.

With LCRLPLDQTSKPIVTTYAGR, the amyloid nucleation score entry was “inactive”. For LCRRLQTGMAYHMVSSYFNW, the amyloid nucleation score result is “inactive”. As to LCSHLEVDSL, the amyloid nucleation score entry was “inactive”. The same measure for LCSRRSGMVRIWIVSSARLY: “inactive”.

On to LCVIWIVSHRRDCMAFCEQQ, for which the amyloid nucleation score entry was “inactive”. LCVSLNCPQFSFYSLQNQPY came in with an amyloid nucleation score of 2.71 ± 0.053. Substance LCVVEIFTLIGSCCHSDLGW had an amyloid nucleation score of 0.914 ± 0.13. On to LCYCLKAVDYRLNFFHKWRH, for which the amyloid nucleation score entry is “inactive”. LDAWRWMSLTADYGKSLVTR: the amyloid nucleation score entry is “inactive”. Turning to LDDRQSVCGTAYKVMTDIS, the amyloid nucleation score result is “inactive”. The same measure for LDFANCFLVQCL: “inactive”; for LDGGMNNRR: “inactive”; for LDHRGIRFFN: “inactive”.

LDILVRETDQSLWDFQLSSV: the amyloid nucleation score was 0.499 ± 0.13. As for LDKVSNSCTPIWPFVIET, the amyloid nucleation score entry is “inactive”. As for LDLNVIDRGWTPGTGTVQRM, the entry is “inactive”. For LDNVR, the amyloid nucleation score entry is “inactive”.

Turning to LDQTSRIVYVFTCSYWLDKV, the amyloid nucleation score result is “inactive”. As to LDSADTNDHPFSWYNGMLGT, the amyloid nucleation score entry was “inactive”.

Take LDSGISNHPNFIFTHTEFIN: the amyloid nucleation score result is “inactive”. In the case of LDTVTCNSLETAFGSFKNWL, the amyloid nucleation score result was “inactive”. As for LDVGIVYSLVVCRKIRRSL, the entry is “inactive”; as for LDVIFSKTFMEIVTLVVSLD, “inactive”. Regarding LDVLKMGIVV, the amyloid nucleation score entry is “inactive”. In the case of LEAHESIRFCP, the amyloid nucleation score entry is “inactive”. LEEDVHISFHHIFDRFCPTT: the amyloid nucleation score result was “inactive”.

As for LENNIRSDSTFSTWTHDQCQ, the amyloid nucleation score result was “inactive”. For LERYWCTNRGFNRWMQAYKD, the amyloid nucleation score result was “inactive”. As for LFAAYCFVYDIQFTRVPGAW, the amyloid nucleation score entry was “inactive”. For the substance LFALSWTS, the amyloid nucleation score stood at 0.182 ± 0.35. As to LFARRVGSYCVIVCQPVLWE, the amyloid nucleation score result was “inactive”.

Turning to LFCGT, the amyloid nucleation score entry was “inactive”. With LFDFHSSCKSAVIAYLLSRR, the amyloid nucleation score worked out at 0.138 ± 0.47.

Take LFDRTLL: the amyloid nucleation score result was “inactive”. The same measure for LFEVSS: “inactive”; for LFFCHYILY: 1.58 ± 0.087. For LFFLRRNCHTDVSSLEYDNA, the amyloid nucleation score entry was “inactive”. The same measure for LFFLTCRCVRNAYHRYMVCI: “inactive”; for LFGFLYFVV: -0.564 ± 0.82. As to LFGTRIYGLFLCSLNLCRRV, the amyloid nucleation score result was “inactive”.

Regarding LFHSAMNGSHFSTVHSNSVI, the amyloid nucleation score result is “inactive”. With LFIMFCFGIRCLEPDIRHCY, the amyloid nucleation score entry was “inactive”.

Consider LFKGGDSICYSHWSVRSSRK, for which the amyloid nucleation score came to 1.09 ± 0.12. For LFLAKRSLSDTLFQPDPFSR, the amyloid nucleation score result is “inactive”. The substance LFLDVSIYVCPEGILRKS yielded an amyloid nucleation score of 2.65 ± 0.084. For LFLKSLCCFRICTNFIKVEL, the amyloid nucleation score result was “inactive”.

Take LFLRPNANRYVH: the amyloid nucleation score result was “inactive”. LFLRTEKIRFRSTRLVTLSC: the amyloid nucleation score entry was “inactive”.

Consider LFLYLCTVYNDFKELQPRNL, for which the amyloid nucleation score is 2.67 ± 0.07. As for LFMGCPVEV, the amyloid nucleation score was -0.515 ± 0.62. Take LFMTRSFILYFTYPFRYGVV: the amyloid nucleation score result was “inactive”. In the case of LFRLYKYLQCPSQGWCPRH, the amyloid nucleation score entry was “inactive”. For the substance LFSEFQ, the amyloid nucleation score turned out to be 0.574 ± 0.32. LFSGSHWCRDNMWSSGAIDA: the amyloid nucleation score entry is “inactive”. LFSNSLNFLIK displayed an amyloid nucleation score of 0.679 ± 0.28. As to LFSWRKYGVNHQLLGVEIQS, the amyloid nucleation score entry was “inactive”. On to LFVFIYSVSGLLDDGVGLGG, for which the amyloid nucleation score entry was “inactive”. For LFVLSTKSLFP, the amyloid nucleation score amounted to 1.39 ± 0.089. With LFYLYF, the amyloid nucleation score entry was “inactive”. As to LGCRYFHYAILNPHQLDKIG, the amyloid nucleation score entry was “inactive”.

For the substance LGFMKSFLGYSY, the amyloid nucleation score entry was “inactive”.

For LGIQYLDETHCPKSTSKGFS, the amyloid nucleation score result was “inactive”. For the substance LGITNGRL, the amyloid nucleation score result was “inactive”.

Regarding LGLDTSSSVYCQSCGVRFSV, the amyloid nucleation score entry was “inactive”. On to LGLMLDILRKQDC, for which the amyloid nucleation score result is “inactive”. As for LGMCSHESYNLHEEICIW, the amyloid nucleation score result is “inactive”. The same measure for LGNISCELARIELHAPAIR: “inactive”. The same measure for LGNSAKVVLRWVEGVGLGVA: “inactive”; for LGRANIHATIACM: “inactive”; for LGRCDVIVKEFVTIIA: “inactive”. Substance LGSIRSSKCKNLVICIGPMC displayed an amyloid nucleation score of 2.41 ± 0.051. Turning to LGSVVRRDEGIVGESY, the amyloid nucleation score was determined as 0.078 ± 0.6. On to LGSWLWR, for which the amyloid nucleation score result is “inactive”. In the case of LGTWFWVVVG, the amyloid nucleation score result was “inactive”. On to LGVCSGH, for which the amyloid nucleation score result is “inactive”.

Take LGYMLNGGRMQKNATNKSGA: the amyloid nucleation score entry was “inactive”. The same measure for LHIGLNS: “inactive”. In the case of LHMIVALSSSSSMTYDVRVV, the amyloid nucleation score entry was “inactive”. As for LHWSIDR, the amyloid nucleation score result was “inactive”. On to LHYICQKLGGMWMVLVCRAC, for which the amyloid nucleation score entry was “inactive”. As to LHYLLTLARKSEWHYLLDIR, the amyloid nucleation score result is “inactive”. As to LIFGVIPCQPR, the amyloid nucleation score entry is “inactive”. Turning to LIFWRPIGDEHYLWPLPFYL, the amyloid nucleation score entry was “inactive”. The same measure for LIGFLNNSVFMSAGY: “inactive”.

Take LIGQFISYIKSVIGSDRKGC: the amyloid nucleation score entry is “inactive”. Consider LIHICHRVQPHMSCDCVAMW, for which the amyloid nucleation score entry was “inactive”.

Take LIKCPIRYDDYKRPWLAS: the amyloid nucleation score entry was “inactive”.

As for LILCRCCSGVYRTRVMKLLL, the amyloid nucleation score entry is “inactive”. As for LIPSKRTSDRLFLGPATLDF, the entry is “inactive”. The substance LIRNEGFCEKS returned an amyloid nucleation score of 0.244 ± 0.14.

Take LIRTARSLYWAYVHLAVSWR: the amyloid nucleation score result was “inactive”.

For LITCI, the amyloid nucleation score entry is “inactive”. As for LKAKCVIMSLPLDMGYHGKR, the entry is “inactive”; as for LKDCTCEFIFMTGKYCIYFR, -0.495 ± 0.76; as for LKISALTIESMF, “inactive”.
